The assay deals with IL-4 receptor α (IL-4Rα) (UniProt P24394).
Chain of UniProt P24394 (P24394 26-825): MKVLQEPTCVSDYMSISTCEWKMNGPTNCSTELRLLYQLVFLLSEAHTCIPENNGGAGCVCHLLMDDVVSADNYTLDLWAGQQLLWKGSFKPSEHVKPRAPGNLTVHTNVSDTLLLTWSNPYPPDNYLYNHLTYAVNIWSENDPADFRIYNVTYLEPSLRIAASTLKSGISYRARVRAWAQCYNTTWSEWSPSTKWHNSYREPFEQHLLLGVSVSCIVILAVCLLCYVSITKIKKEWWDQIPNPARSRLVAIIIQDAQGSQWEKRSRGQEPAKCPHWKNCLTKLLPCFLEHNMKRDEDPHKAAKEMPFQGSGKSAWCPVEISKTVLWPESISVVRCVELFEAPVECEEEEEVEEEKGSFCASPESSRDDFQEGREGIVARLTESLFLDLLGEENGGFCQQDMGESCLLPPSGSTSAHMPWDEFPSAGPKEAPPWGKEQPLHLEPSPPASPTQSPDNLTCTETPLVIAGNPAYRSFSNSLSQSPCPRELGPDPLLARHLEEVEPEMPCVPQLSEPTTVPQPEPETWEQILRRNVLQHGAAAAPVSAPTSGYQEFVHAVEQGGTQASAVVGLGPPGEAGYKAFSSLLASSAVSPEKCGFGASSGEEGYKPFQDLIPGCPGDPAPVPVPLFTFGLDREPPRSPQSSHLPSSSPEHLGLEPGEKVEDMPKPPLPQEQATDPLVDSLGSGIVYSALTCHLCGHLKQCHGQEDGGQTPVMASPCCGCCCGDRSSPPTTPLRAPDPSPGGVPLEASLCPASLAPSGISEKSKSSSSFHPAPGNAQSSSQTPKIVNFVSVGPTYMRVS

“Wildtype human IL-4 (from UniProt P05112 25-153) (ligand)” had a TF-1 cell proliferation, dose dependency for wild-type human IL-4 (EC50) of 0.01 to 0.02 nM.

These data come from paper PMC3558457.
